Reference: US20230212239A1, “INHIBITORS OF CBL AUTOINHIBITION AND RELATED METHODS” (THE HOSPITAL FOR SICK CHILDREN, priority 2020, published 2023)

Tests used:
CBL TKBD = assay: Co-purification of CBL TKBD with Trx-His-SLAP2/SLAP (Duet co-expression, Ni-NTA, SDS-PAGE); type: binding; conditions: low salt concentration (0.15 M NaCl)
Source text: To validate the CBL/SLAP2 binding interface, a series of mutants in a Duet co-expression vector system was generated for co-purification trials. The SLAP2 sequence was preceded by thioredoxin (Trx) and His-tag fusion proteins to allow co-purification of CBL TKBD that was bound to Trx-His-SLAP2 during the initial affinity chromatography purification step. Surface residues deemed to be important to the CBL/SLAP2 interface, but not CBL function or folding, were mutated to disrupt CBL/SLAP2 binding (FIG. 5C and FIG. 6). In our structure, SLAP2 Gly240 locates close to CBL Met269 and Ala270, such that mutation to a bulky Arg residue (G240R) could cause sterical constraints. Similarly, SLAP2 Leu241 is situated in a hydrophobic cleft composed of CBL Ala223, Trp258, and Val263; mutation to Arg (L241R) was predicted to disturb this binding pocket. Mutation of CBL Ala223 to Arg (A223R) would likewise disrupt this pocket, with CBL/SLAP2 double mutant A223R/L241R predicted to drastically disturb binding through sterical constraints and charge repulsion. (For clarity, CBL mutations herein are indicated in italics, SLAP2 in regular font.) Similarly, single or double mutation of CBL Ser226 or SLAP2 Ser244, whose side chain hydroxyl groups are in close proximity to one another, to charged Glu residues (S226E and S244E) was anticipated to interfere with CBL/SLAP2 binding. Finally, given that SLAP2 binds CBL as an α-helix, mutation of Leu245, located in the center of this α-helix, to proline (L245P) was expected to interrupt the helical structure and thus prevent SLAP2 binding. […] However, double mutation of the CBL/SLAP2 interface (A223R/L241R and S226E/S244E; FIG. 5D, lower panel) was not tolerated, even at low salt concentration.
For co-purification of CBL and SLAP2/SLAP, Duet-His-hSLAP2-CBL 29-261 Δ198-229 and 29-254 Δ198-229, Duet-His-Δlinker-hSLAP2-CBL WT and point mutants, and Duet-His-mSLAP-CBL WT and point mutants were overexpressed in E. coli BL-21 as above or TKB1 competent cells (Stratagene) as per manufacturer’s instructions, and cells harvested as above (except 100 mL of LB, overnight at 16-18° C., and 0.35-0.5 mM IPTG induction). Cell pellets were resuspended in either high or low salt (as for high salt except 25 mM HEPEs pH 7.5, 150 mM NaCl) lysis buffer and purified as above on Ni-NTA agarose (Qiagen) with wash buffer (25 mM HEPEs pH 7.5, 150 mM NaCl, 2% glycerol, 20 mM imidazole, 10 mM βME). Bead slurry was mixed with SDS 2X loading buffer (125 mM Tris pH 6.8, 4% SDS, 20% glycerol, 0.715 M βME, bromophenol blue), boiled, and analyzed by 10 or 12.5% SDS-PAGE, stained with Coomassie blue.

[1] = molecular target: T1, CBL TKBD-LHR-RING (2-436), unphosphorylated (Homo sapiens, UniProt P22681); assay: In vitro ubiquitination assay, anti-ubiquitin immunoblot; type: biochemical; conditions: anti-Ub immunoblot and E3LITE (FIGS. 11A,B, 10B-D)
T1 construct: GST (N, cleaved yes); made in house; host or cells: E. coli BL-21
T1 sequence (P22681 2-436): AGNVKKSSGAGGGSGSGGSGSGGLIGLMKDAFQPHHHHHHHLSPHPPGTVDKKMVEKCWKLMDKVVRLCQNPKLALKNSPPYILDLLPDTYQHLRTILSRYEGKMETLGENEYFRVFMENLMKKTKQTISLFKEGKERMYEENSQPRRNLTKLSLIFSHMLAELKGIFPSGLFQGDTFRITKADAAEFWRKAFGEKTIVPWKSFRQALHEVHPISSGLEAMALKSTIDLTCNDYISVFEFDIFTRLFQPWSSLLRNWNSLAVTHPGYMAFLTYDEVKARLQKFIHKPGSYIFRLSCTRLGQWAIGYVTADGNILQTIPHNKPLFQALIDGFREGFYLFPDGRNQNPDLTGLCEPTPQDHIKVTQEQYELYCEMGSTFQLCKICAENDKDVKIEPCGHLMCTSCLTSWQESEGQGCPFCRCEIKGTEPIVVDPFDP
Source text: Given that binding of SLAP2 and the LHR-RING would be mutually exclusive (FIG. 8C), we reasoned that binding of SLAP2 to CBL could displace the LHR-RING, thereby promoting the catalytically competent conformation. To test this hypothesis, an in vitro ubiquitination assay in which E3 ligase activity is detected by a smear at high molecular weight on an anti-ubiquitin (Ub) immunoblot was employed. […] To further compare and quantify CBL ubiquitin ligase activity, a chemiluminescence based assay which measures the total amount of polyubiquitylated products formed in an in vitro reaction was used. In this assay, production of polyubiquitylated proteins increased upon addition of SLAP2 or pSLAP2 to CBL, compared to CBL alone (FIG. 9C and FIG. 10A).
In vitro ubiquitination reactions were prepared with 20 pmol of CBL or pCBL and 60 pmol of hSLAP2 or phosphorylated hSLAP2 (pSLAP2) for both WT and mutants. Reagents were thawed and reactions prepared on ice. CBL and SLAP2 were mixed in PBS (with 5 mM βME, 5 mM caproic acid, 0.5 mM PMSF, and 0.5 mM Na3VO4) at rt for 5-10 min before addition of master mix (42 pmol E1 (UBE1, Boston Biochem or Ubiquitin-Proteasome Biotechnologies), 0.1 µmol E2 (UbcH5b/UBE2D2, Boston Biochem #E2-622), […], and 11.6 µmol ubiquitin (Boston Biochem #U-100H) in reaction buffer (0.2 M Tris pH 7.5, 10 mM MgCl2, 2 mM DTT). Reactions were incubated at 30° C. shaking at 500-700 rpm for 60-110 minutes and terminated by addition of SDS 2X loading buffer and boiling for 5-10 minutes. Equal volumes of each reaction were loaded on 12.5% SDS-PAGE gel, transferred to PVDF membrane, and immunoblotted for ubiquitin as per standard protocols (anti-ubiquitin antibody P4G7, BioLegend #838701, 1:1000; anti-mouse IgG HRP-linked antibody, Cell Signaling Technology #7076, 1:10000; Western Lightning Plus ECL, Perkin Elmer).

Molecule	CBL TKBD co-purification (CBL TKBD)	stimulation/activation of CBL ubiquitination activity by SLAP2 mutants versus WT [1]
SLAP L241R: mouse SLAP interface mutant analogous to SLAP2 L241R (protein, UniProt Q60898 2-281, looked up, variant L241R) Src-like-adapter: GNSMKSTSPPSERPLSSSEGLESDFLAVLTDYPSPDISPPIFRRGEKLRVISDEGGWWKAISLSTGRESYIPGICVARVYHGWLFEGLGRDKAEELLQLPDTKIGSFMIRESETKKGFYSLSVRHRQVKHYRIFRLPNNWYYISPRLTFQCLEDLVTHYSEVADGLCCVLTTPCLAQNIPAPTSHPSPCTSPGSPVTLRQKTFDWKRVSRLQEGSEGAENPLRVDESLFSYGLRESIASYRSLTGDDSSSFDRKKKSLSLMYTGSKRKSSFFSAPQYFED	abrogated CBL co-purification	–
Phosphorylated SLAP2 L241R: phosphorylated SLAP2 point mutant L241R at CBL/SLAP2 interface (protein, UniProt Q9H6Q3 2-261, looked up, variant L241R, tyrosine phosphorylated, phosphorylated SLAP2 point mutant L241R at CBL/SLAP2 interface) Src-like-adapter 2: GSLPSRRKSLPSPSLSSSVQGQGPVTMEAERSKATAVALGSFPAGGPAELSLRLGEPLTIVSEDGDWWTVLSEVSGREYNIPSVHVAKVSHGWLYEGLSREKAEELLLLPGNPGGAFLIRESQTRRGSYSLSVRLSRPASWDRIRHYRIHCLDNGWLYISPRLTFPSLQALVDHYSELADDICCLLKEPCVLQRAGPLPGKDIPLPVTVQRTPLNWKELDSSLLFSEAATGEESLLSEGRRESLSFYISLNDEAVSLDDA	–	reduced stimulation of CBL ubiquitination activity compared to pSLAP2 WT
Phosphorylated SLAP2 S244E: phosphorylated SLAP2 point mutant S244E at CBL/SLAP2 interface (protein, UniProt Q9H6Q3 2-261, looked up, variant S244E, phosphorylated, phosphorylated SLAP2 point mutant S244E at CBL/SLAP2 interface) Src-like-adapter 2: GSLPSRRKSLPSPSLSSSVQGQGPVTMEAERSKATAVALGSFPAGGPAELSLRLGEPLTIVSEDGDWWTVLSEVSGREYNIPSVHVAKVSHGWLYEGLSREKAEELLLLPGNPGGAFLIRESQTRRGSYSLSVRLSRPASWDRIRHYRIHCLDNGWLYISPRLTFPSLQALVDHYSELADDICCLLKEPCVLQRAGPLPGKDIPLPVTVQRTPLNWKELDSSLLFSEAATGEESLLSEGLREELSFYISLNDEAVSLDDA	–	less stimulation of CBL ubiquitination activity than pSLAP2 WT
SLAP2 L241R: SLAP2 interface point mutant Leu241 to Arg (protein, left off: large carriers; small tags and cut ends, SLAP2 interface point mutant Leu241 to Arg) EAERSKATAVALGSFPAGGPAELSLRLGEPLTIVSEDGDWWTVLSEVSGREYNIPSVHVAKVSHGWLYEGLSREKAEELLLLPGNPGGAFLIRESQTRRGSYSLSVRLSRPASWDRIRHYRIHCLDNGWLYISPRLTFPSLQALVDHYSELADDICCLLKEPCVLQRAGPLPGKDIPLPVTVQRTPLNWKELDSSLLFSEAATGEESLLSEGRRESLSFYISLNDEAVSLDDA	abrogated CBL co-purification	–
SLAP2 G240R: SLAP2 interface point mutant Gly240 to Arg (protein, left off: large carriers; small tags and cut ends, SLAP2 interface point mutant Gly240 to Arg) EAERSKATAVALGSFPAGGPAELSLRLGEPLTIVSEDGDWWTVLSEVSGREYNIPSVHVAKVSHGWLYEGLSREKAEELLLLPGNPGGAFLIRESQTRRGSYSLSVRLSRPASWDRIRHYRIHCLDNGWLYISPRLTFPSLQALVDHYSELADDICCLLKEPCVLQRAGPLPGKDIPLPVTVQRTPLNWKELDSSLLFSEAATGEESLLSERLRESLSFYISLNDEAVSLDDA	tolerated	–
SLAP2 L245P: SLAP2 point mutant Leu245 to proline, expected to interrupt the helix (protein, left off: large carriers; small tags and cut ends, SLAP2 point mutant Leu245 to proline, expected to interrupt the helix) EAERSKATAVALGSFPAGGPAELSLRLGEPLTIVSEDGDWWTVLSEVSGREYNIPSVHVAKVSHGWLYEGLSREKAEELLLLPGNPGGAFLIRESQTRRGSYSLSVRLSRPASWDRIRHYRIHCLDNGWLYISPRLTFPSLQALVDHYSELADDICCLLKEPCVLQRAGPLPGKDIPLPVTVQRTPLNWKELDSSLLFSEAATGEESLLSEGLRESPSFYISLNDEAVSLDDA	abrogated CBL co-purification	–
SLAP2 S244E: SLAP2 interface point mutant Ser244 to Glu (protein, left off: large carriers; small tags and cut ends, SLAP2 interface point mutant Ser244 to Glu) EAERSKATAVALGSFPAGGPAELSLRLGEPLTIVSEDGDWWTVLSEVSGREYNIPSVHVAKVSHGWLYEGLSREKAEELLLLPGNPGGAFLIRESQTRRGSYSLSVRLSRPASWDRIRHYRIHCLDNGWLYISPRLTFPSLQALVDHYSELADDICCLLKEPCVLQRAGPLPGKDIPLPVTVQRTPLNWKELDSSLLFSEAATGEESLLSEGLREELSFYISLNDEAVSLDDA	tolerated	–
SLAP2 R242A: SLAP2 mutant in the SLAP2/SLAP2 interface (protein, left off: large carriers; small tags and cut ends, SLAP2 mutant in the SLAP2/SLAP2 interface) EAERSKATAVALGSFPAGGPAELSLRLGEPLTIVSEDGDWWTVLSEVSGREYNIPSVHVAKVSHGWLYEGLSREKAEELLLLPGNPGGAFLIRESQTRRGSYSLSVRLSRPASWDRIRHYRIHCLDNGWLYISPRLTFPSLQALVDHYSELADDICCLLKEPCVLQRAGPLPGKDIPLPVTVQRTPLNWKELDSSLLFSEAATGEESLLSEGLAESLSFYISLNDEAVSLDDA	did not significantly impact co-purification of CBL	did not alter SLAP2 or pSLAP2 activation of CBL
